Target: T1, GPR110 F663S mutant (C-terminal HA tag) (human, UniProt Q5T601-1 20-910, F663S)
T1 sequence (looked up): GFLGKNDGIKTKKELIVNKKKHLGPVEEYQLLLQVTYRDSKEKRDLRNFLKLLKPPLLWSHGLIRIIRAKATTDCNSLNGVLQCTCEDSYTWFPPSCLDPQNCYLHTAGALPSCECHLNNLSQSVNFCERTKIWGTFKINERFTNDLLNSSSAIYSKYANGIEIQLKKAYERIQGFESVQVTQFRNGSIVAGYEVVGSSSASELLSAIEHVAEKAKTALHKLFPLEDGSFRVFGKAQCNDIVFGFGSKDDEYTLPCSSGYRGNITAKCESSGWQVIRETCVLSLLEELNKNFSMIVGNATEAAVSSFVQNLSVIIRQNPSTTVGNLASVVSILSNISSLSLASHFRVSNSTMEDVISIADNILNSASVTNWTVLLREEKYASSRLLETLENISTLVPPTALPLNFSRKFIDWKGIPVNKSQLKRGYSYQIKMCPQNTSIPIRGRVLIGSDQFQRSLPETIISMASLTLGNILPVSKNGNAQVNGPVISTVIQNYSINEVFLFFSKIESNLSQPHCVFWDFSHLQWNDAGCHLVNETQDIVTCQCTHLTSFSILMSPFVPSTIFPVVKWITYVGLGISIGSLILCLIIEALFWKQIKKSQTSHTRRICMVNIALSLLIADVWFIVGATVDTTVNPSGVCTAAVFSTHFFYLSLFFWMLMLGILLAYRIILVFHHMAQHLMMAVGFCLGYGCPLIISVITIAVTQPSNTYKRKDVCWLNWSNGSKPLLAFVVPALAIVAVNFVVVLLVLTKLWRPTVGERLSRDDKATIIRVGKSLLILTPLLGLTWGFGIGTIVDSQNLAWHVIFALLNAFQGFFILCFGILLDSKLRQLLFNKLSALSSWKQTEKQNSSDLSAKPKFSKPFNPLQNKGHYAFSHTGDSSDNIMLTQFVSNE
Experiment: cross-linking + affinity purification with mass spectrometry

B1: occludin (tight junction protein) (natural protein, human (endogenous in HEK293), UniProt Q16625 1-522, looked up)
chain: MSSRPLESPPPYRPDEFKPNHYAPSNDIYGGEMHVRPMLSQPAYSFYPEDEILHFYKWTSPPGVIRILSMLIIVMCIAIFACVASTLAWDRGYGTSLLGGSVGYPYGGSGFGSYGSGYGYGYGYGYGYGGYTDPRAAKGFMLAMAAFCFIAALVIFVTSVIRSEMSRTRRYYLSVIIVSAILGIMVFIATIVYIMGVNPTAQSSGSLYGSQIYALCNQFYTPAATGLYVDQYLYHYCVVDPQEAIAIVLGFMIIVAFALIIFFAVKTRRKMDRYDKSNILWDKEHIYDEQPPNVEEWVKNVSAGTQDVPSPPSDYVERVDSPMAYSSNGKVNDKRFYPESSYKSTPVPEVVQELPLTSPVDDFRQPRYSSGGNFETPSKRAPAKGRAGRSKRTEQDHYETDYTTGGESCDELEEDWIREYPPITSDQQRQLYKRNFDTGLQEYKSLQSELDEINKELSRLDKELDDYREESEEYMAAADEYNRLKQVKGSADYKSKKNHCKQLKSKLSHIKKMVGDYDRQKT
fold less than with WT GPR110 (label-free MS quantitation): 5 fold

— article PMC10139975 (iScience, 2023)
